Assay [1] addresses T1, HLA-A*02:01 (Homo sapiens, UniProt P04439, D140Y/D185E/D98H/E176V/E277Q/G131W/G231S/I119V/I121R/I166T/I218V/L300P/L318F/N151K/N90K/P208A/P217A/Q86G/Q94H/R138H/R169H/T345S).
T1 construct: made in house
The experiment in a line: MHC binding assay: UV-ligand exchange with β2m ELISA (peptide exchange yield). The note with it: binding to HLA-A*02:01 evaluated by peptide exchange yield (UV-ligand exchange, β2m ELISA). An outline of the steps: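 UV-exchange pMHC monomers, 100-fold diluted → streptavidin capture 1 h 37 °C → HRP anti-β2m 2 ug/ml 1 h 37 °C → TMB, A450. Yield from HLA-A*02:01/MLA-001 monomer standard curve, 15-500 ng/ml. Only stably bound peptides keep β2m-containing complexes intact.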

For assay [2], the target named is T2, HLA-A*02:01 (human).
T2 construct: MHC monomers captured on streptavidin plates; the UV-sensitive peptide is cleaved and exchanged with the test peptide; also called peptide-receptive MHC molecules; MHC class I
The experiment in a line: UV ligand-exchange ELISA (anti-b2m); +++ = exchange yield >=50. From the text: Candidate peptides for T cell based therapies according to the present invention were further tested for their MHC binding capacity (affinity). The individual peptide-MHC complexes were produced by UV-ligand exchange, where a UV-sensitive peptide is cleaved upon UV-irradiation, and exchanged with the peptide of interest as analyzed. Only peptide candidates that can effectively bind and stabilize the peptide-receptive MHC molecules prevent dissociation of the MHC complexes. To determine the yield of the exchange reaction, an ELISA was performed based on the detection of the light chain (β2m) of stabilized MHC complexes. The assay was performed as generally described in Rodenko et al. (Rodenko et al., 2006).
96 well MAXISorp plates (NUNC) were coated over night with 2 ug/ml streptavidin in PBS at room temperature, washed 4× and blocked for 1 h at 37° C. in 2% BSA containing blocking buffer. Refolded HLA-A*02:01/MLA-001 monomers served as standards, covering the range of 15-500 ng/ml. Peptide-MHC monomers of the UV-exchange reaction were diluted 100 fold in blocking buffer. Samples were incubated for 1 h at 37° C., washed four times, incubated with 2 ug/ml HRP conjugated anti-β2m for 1 h at 37° C., washed again and detected with TMB solution that is stopped with […]. Absorption was measured at 450 nm. Candidate peptides that show a high exchange yield (preferably higher than 50%, most preferred higher than 75%) are generally preferred for a generation and production of antibodies or fragments thereof, and/or T cell receptors or fragments thereof, as they show sufficient avidity to the MHC molecules and prevent dissociation of the MHC complexes.

Consider “198 (ILTNKVVSV; listed as Homo sapiens) [compound 198]”, for which the Peptide exchange result with HLA-A*02:01 [1] is “++ (≧20% = ++)”. Turning to “98 (FVQEKIPEL; listed as Homo sapiens) [compound 98]”, the Peptide exchange entry in the assay with HLA-A*02:01 [1] is recorded as “+++ (≧50 = +++)”.

As to “225 (FLPQPVPLSV; listed as Homo sapiens) [compound 225]”, the Peptide exchange result with HLA-A*02:01 [1] is recorded as “+++ (≧50 = +++)”. Still for that read-out and setting: the result for “115 (ILHGEVNKV; listed as Homo sapiens) [compound 115]” reads “++ (≧20% = ++)”; that for “177 (ALINVLNAL; listed as Homo sapiens) [compound 177]”, “+++ (≧50 = +++)”; that for “68 (QLMNLIRSV; listed as Homo sapiens) [compound 68]”, “+++ (≧50 = +++)”. Turning to “106 (VLLGSVVIFA; listed as Homo sapiens) [compound 106]”, the Peptide exchange result with HLA-A*02:01 [1] was “++ (≧20% = ++)”. For “105 (AMLASQTEA; listed as Homo sapiens) [compound 105]”, the Peptide exchange result with HLA-A*02:01 [1] is on record as “++ (≧20% = ++)”. Same read-out and setting: the result for “52 (TIGIPFPNV; listed as Homo sapiens) [compound 52]” reads “++ (≧20% = ++)”; that for “57 (TLYPGRFDYV; listed as Homo sapiens) [compound 57]”, “++ (≧20% = ++)”. The same measure, in the same setting: the result for “284 (KLMDPGSLPPL; listed as Homo sapiens) [compound 284]” reads “++ (≧20% = ++)”; that for “22 (LMYPYIYHV; listed as Homo sapiens) [compound 22]”, “+++ (≧50 = +++)”.

For the molecule “147 (GLLSALENV; listed as Homo sapiens) [compound 147]”, the Peptide exchange result with HLA-A*02:01 [1] was “+++ (≧50 = +++)”. Turning to “10 (QLIEKNWLL; listed as Homo sapiens) [compound 10]”, in the assay with HLA-A*02:01 [1], the Peptide exchange result is given as “+++ (≧50 = +++)”. In the case of “21 (YLMDDFSSL; listed as Homo sapiens) [compound 21]”, in the assay with HLA-A*02:01 [1], the Peptide exchange result is “+++ (≧50 = +++)”. Regarding “132 (ALLNNVIEV; listed as Homo sapiens) [compound 132]”, in the assay with HLA-A*02:01 [1], the Peptide exchange result was “+++ (≧50 = +++)”. As to “83 (GLLENSPHL; listed as Homo sapiens) [compound 83]”, the Peptide exchange entry with HLA-A*02:01 [1] is reported as “++ (≧20% = ++)”. Same read-out and setting: the result for “145 (ALEEKLENV; listed as Homo sapiens) [compound 145]” reads “+++ (≧50 = +++)”; that for “74 (GLAFLPASV; listed as Homo sapiens) [compound 74]”, “++ (≧20% = ++)”. For “230 (KLLNMIFSI; listed as Homo sapiens) [compound 230]”, the Peptide exchange entry with HLA-A*02:01 [1] is “+++ (≧50 = +++)”. Consider “268 (SLDKDIVAL; listed as Homo sapiens) [compound 268]”, for which the Peptide exchange entry with HLA-A*02:01 [1] was “++ (≧20% = ++)”.

In the case of “241 (KQFEGTVEI; listed as Homo sapiens) [compound 241]”, the Peptide exchange result in the assay with HLA-A*02:01 [1] was “+++ (≧50 = +++)”. Consider TLQEWLTEV, for which the peptide exchange yield with HLA-A*02:01 [2] fell in the range of 50 to 75%.

As to YLDPLWHQL, the peptide exchange yield with HLA-A*02:01 [2] lay within 50 to 75%. Consider RLLDPKTIFL, for which the peptide exchange yield with HLA-A*02:01 [2] lay in the range of 50 to 75%.

As for SLYPHFTLL, the peptide exchange yield with HLA-A*02:01 [2] was 50 to 75%.

For MLIIRVPSV, the peptide exchange yield with HLA-A*02:01 [2] lay within 50 to 75%. In the assay with HLA-A*02:01 [2], SLADLSLLL yielded a peptide exchange yield of 50 to 75%. MLWESIMRV returned a peptide exchange yield with HLA-A*02:01 [2] of 50 to 75%.

As to AALEVLAEV, the peptide exchange yield with HLA-A*02:01 [2] is 50 to 75%. In the assay with HLA-A*02:01 [2], ILAQDVAQL had a peptide exchange yield of 50 to 75%. KLVELEHTL (also called CT83-001): the peptide exchange yield with HLA-A*02:01 [2] lay within 50 to 75%. For the molecule SLLDYEVSI, the peptide exchange yield with HLA-A*02:01 [2] is 50 to 75%. On to VLLDMVHSL, for which the peptide exchange yield with HLA-A*02:01 [2] lay within 50 to 75%. Same read-out and setting: the result for QLGPVPVTI reads 50 to 75%. As to GLLGNLLTSL, the peptide exchange yield with HLA-A*02:01 [2] fell in the range of 50 to 75%. Consider RLHDENILL, for which, in the assay with HLA-A*02:01 [2], the peptide exchange yield is 50 to 75%. QLREAFEQL registered a peptide exchange yield with HLA-A*02:01 [2] of 50 to 75%.

In the assay with HLA-A*02:01 [2], YTFSGDVQL (also called MMP1-003) yielded a peptide exchange yield of 50 to 75%. ALLNNVIEV returned a peptide exchange yield with HLA-A*02:01 [2] of 50 to 75%. Regarding YLILSSHQL, in the assay with HLA-A*02:01 [2], the peptide exchange yield lay in the range of 50 to 75%.

In the case of GLLSALENV, the peptide exchange yield with HLA-A*02:01 [2] was in the range of 50 to 75%. FLDSQITTV: in the assay with HLA-A*02:01 [2], the peptide exchange yield fell in the range of 50 to 75%. For the molecule ALEEKLENV, in the assay with HLA-A*02:01 [2], the peptide exchange yield is 50 to 75%. In the assay with HLA-A*02:01 [2], LLGDSSFFL displayed a peptide exchange yield of 50 to 75%.

As to FLISQTPLL, in the assay with HLA-A*02:01 [2], the peptide exchange yield lay within 50 to 75%. Turning to QLYGSAITL, the peptide exchange yield with HLA-A*02:01 [2] was in the range of 50 to 75%. Same read-out and setting: the result for AQLEGKLVSI reads 50 to 75%; that for SIIDTELKV, 50 to 75%; that for LLWDAPAKC, 50 to 75%. The molecule IILENIQSL returned a peptide exchange yield in the assay with HLA-A*02:01 [2] of 50 to 75%.

These data come from patent US20160279215A1, “NOVEL PEPTIDES AND COMBINATION OF PEPTIDES FOR USE IN IMMUNOTHERAPY AGAINST VARIOUS TUMORS” (immatics biotechnologies GmbH, priority 2015, published 2016).
